Data on one molecule can be found in paper PMC5737477.

In series [1] the target is RAGE (full-length, recombinant) (UniProt Q62151 1-402). Nature of the series: EMSA.
Series [2] has as its target RAGE (full-length, recombinant);MRE11 (Mus musculus?;, UniProt Q62151;P49959 1-402;1-708, |). Nature of the series: EMSA.

Chain of RAGE (full-length, recombinant) (Q62151 whole entry): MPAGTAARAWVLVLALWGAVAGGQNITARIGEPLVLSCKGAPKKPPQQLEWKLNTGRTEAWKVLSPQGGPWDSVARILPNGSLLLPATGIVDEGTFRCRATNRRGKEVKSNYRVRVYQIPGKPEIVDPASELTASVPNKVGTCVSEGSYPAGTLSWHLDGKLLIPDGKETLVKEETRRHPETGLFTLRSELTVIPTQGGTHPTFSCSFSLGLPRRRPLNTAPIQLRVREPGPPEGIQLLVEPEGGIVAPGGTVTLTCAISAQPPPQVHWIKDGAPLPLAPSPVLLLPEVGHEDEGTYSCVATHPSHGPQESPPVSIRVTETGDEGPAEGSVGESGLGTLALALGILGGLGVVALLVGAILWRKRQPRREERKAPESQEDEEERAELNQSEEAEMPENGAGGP
Chain of RAGE (full-length, recombinant);MRE11 (Q62151 whole entry, chain 1 of 2): as the sequence (Q62151 whole entry) above
Chain of RAGE (full-length, recombinant);MRE11 (P49959 whole entry, chain 2 of 2): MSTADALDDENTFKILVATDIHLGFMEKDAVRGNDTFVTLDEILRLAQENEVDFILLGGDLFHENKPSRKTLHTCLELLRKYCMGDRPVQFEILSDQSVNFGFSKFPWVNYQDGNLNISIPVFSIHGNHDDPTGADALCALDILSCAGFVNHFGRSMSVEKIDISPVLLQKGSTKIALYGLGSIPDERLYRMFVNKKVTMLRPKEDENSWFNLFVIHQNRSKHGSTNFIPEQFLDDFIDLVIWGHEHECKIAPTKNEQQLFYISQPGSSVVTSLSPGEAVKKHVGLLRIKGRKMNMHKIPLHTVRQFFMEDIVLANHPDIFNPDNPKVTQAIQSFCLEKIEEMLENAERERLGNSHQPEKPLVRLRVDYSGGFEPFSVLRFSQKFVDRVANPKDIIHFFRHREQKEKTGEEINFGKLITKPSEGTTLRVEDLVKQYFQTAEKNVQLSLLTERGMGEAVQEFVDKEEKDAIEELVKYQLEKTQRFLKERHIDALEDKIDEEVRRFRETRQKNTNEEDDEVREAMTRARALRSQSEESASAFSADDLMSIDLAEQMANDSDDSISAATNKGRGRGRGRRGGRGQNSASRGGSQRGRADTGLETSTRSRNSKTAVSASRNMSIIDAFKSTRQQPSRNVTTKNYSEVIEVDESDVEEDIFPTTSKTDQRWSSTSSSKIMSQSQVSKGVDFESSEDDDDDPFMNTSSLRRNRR

B1: RAGE EM-F/EM-R 64mer dsDNA probe (dsDNA)
DNA 1: GGACTCCAGGTCCAGGACCGCCGTTTTTCGCGCGCACGGCGCGGGAGGTCCAGCTGGTCCACCTCC
DNA 2: GGAGGTGGACCAGCTGGACCTCCCGCGCCGTGCGCGCGAAAAACGGCGGTCCTGGACCTGGAGTCC
B1: the binding result in series [1] and in series [2] was “binds” each time.
